Consider six molecules from article PMC8743172 (Current Research in Structural Biology, 2021).

Read-outs that look alike come from different tables or passages of the source. Square brackets hold non-standard residues; d marks the D form. Primed or numbered codes have the meaning given here. Ends that are not written are not given here. FITC′ = fluorescein isothiocyanate fluorescent label; TAMRA = tetramethylrhodamine fluorescent label; Cy5 = cyanine-5 fluorescent label; pS = N[C@@H](COP(=O)(O)O)C(=O)O

The labels stand for the following.
B1: FITC-labelled 13-mer Amot-p130 peptide (peptide)
peptide: {FITC′}-GHVRSL[pS]ERLMQM
modifications: also: phosphoserine at 175 (S5 or S7)
B2: 14-3-3η (natural protein, human, UniProt Q04917 1-246, looked up)
chain: MGDREQLLQRARLAEQAERYDDMASAMKAVTELNEPLSNEDRNLLSVAYKNVVGARRSSWRVISSIEQKTMADGNEKKLEKVKAYREKIEKELETVCNDVLSLLDKFLIKNCNDFQYESKVFYLKMKGDYYRYLAEVASGEKKNSVVEASEAAYKEAFEISKEQMQPTHPIRLGLALNFSVFYYEIQNAPEQACLLAKQAFDDAIAELDTLNEDSYKDSTLIMQLLRDNLTLWTSDQQDEEAGEGN

One experiment relates to apo 14-3-3. The note with it: ref Andrei et al., 2018; cited from earlier work.
The experiment “14-3-3η” concerns the target B2. Nature of the experiment: fluorescence polarisation.
Experiment [1] has as its target T1, 14-3-3σΔC (C-terminally truncated after T231) (human, UniProt P31947 1-231).
T1 sequence (looked up): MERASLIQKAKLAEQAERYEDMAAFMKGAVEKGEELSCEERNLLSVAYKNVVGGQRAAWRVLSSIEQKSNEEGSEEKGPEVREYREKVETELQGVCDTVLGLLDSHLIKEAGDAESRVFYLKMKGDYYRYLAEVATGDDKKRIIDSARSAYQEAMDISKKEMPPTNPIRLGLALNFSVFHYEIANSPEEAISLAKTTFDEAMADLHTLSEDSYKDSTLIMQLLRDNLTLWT
Nature of the experiment: crystal structure.

For the next experiment, the target named is T2, 14-3-3ζ (human, UniProt P63104 1-245).
T2 sequence (looked up): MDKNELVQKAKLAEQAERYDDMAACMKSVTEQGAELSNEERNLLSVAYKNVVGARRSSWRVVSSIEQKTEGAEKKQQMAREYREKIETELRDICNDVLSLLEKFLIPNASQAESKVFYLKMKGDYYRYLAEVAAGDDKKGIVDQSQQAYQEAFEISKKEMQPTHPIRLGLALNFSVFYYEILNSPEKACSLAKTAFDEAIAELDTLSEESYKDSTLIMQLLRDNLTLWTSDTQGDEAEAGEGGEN
The experiment is described as follows: fluorescence polarisation. (In general: In fluorescence polarisation assays a small probe gives low polarisation when free and higher when bound to something large.)

The target in another experiment is T3, 14-3-3β (human, UniProt P31946 1-246).
T3 sequence (looked up): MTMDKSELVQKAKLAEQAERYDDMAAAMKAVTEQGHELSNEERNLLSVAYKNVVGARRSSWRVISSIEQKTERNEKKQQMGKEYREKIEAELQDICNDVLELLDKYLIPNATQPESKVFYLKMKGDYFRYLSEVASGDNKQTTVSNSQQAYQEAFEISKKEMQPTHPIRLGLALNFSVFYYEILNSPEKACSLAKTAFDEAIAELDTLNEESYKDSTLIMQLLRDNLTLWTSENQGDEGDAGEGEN
The experiment is described as follows: fluorescence polarisation.

The next experiment addresses T4, 14-3-3τ (human, UniProt P27348 1-245).
T4 sequence (looked up): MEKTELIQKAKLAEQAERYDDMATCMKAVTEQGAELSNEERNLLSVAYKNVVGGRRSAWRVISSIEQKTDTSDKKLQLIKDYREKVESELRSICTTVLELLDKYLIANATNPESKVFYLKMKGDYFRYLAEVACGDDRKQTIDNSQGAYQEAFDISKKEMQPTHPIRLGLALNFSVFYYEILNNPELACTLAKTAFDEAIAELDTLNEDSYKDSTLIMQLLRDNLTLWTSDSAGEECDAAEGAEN
The experiment is described as follows: fluorescence polarisation.

The next experiment deals with T5, 14-3-3ε (human, UniProt P62258 1-255).
T5 sequence (looked up): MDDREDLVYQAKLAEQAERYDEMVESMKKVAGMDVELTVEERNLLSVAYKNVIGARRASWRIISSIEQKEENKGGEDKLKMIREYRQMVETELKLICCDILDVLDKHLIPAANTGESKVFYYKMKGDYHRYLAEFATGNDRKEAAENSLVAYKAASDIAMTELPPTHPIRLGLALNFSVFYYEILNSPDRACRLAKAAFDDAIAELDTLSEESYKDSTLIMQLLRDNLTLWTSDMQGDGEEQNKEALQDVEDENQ
Nature of the experiment: fluorescence polarisation.

Experiment [2] deals with T1, 14-3-3σΔC (C-terminally truncated after …). The experiment is described as follows: crystal structure. This is another data set of the same source.
In experiment [3] the target is B1. The experiment is described as follows: fluorescence polarisation.
The target in experiment [4] is T6, Cy5 labelled 13-mer Amot-p130 peptide (also: phosphoserine at 175 (S5 or S7)).
T6 peptide: Cy5-GHVRSL[pS]ERLMQM
Nature of the experiment: MST.

`C=CC(C)(C)OC[C@H]1O[C@H](O[C@@H]2C3=C([C@H](C)CNC(C)=O)C[C@H](O)[C@]3(C)/C=C3/[C@@H](COC)CC[C@H]3[C@@H](C)[C@H]2O)[C@H](O)[C@@H](O)[C@@H]1O` [FC-NAc]: the “affinity for the apo 14-3-3” value with apo 14-3-3 was “higher affinity for the apo 14-3-3”.
For the molecule {TAMRA}-GHVRSL[pS]ERLMQM (also: phosphoserine at 175 (S5 or S7)) [TAMRA-labelled 13-mer Amot-p130 peptide], the binding result with 14-3-3η was “binds”.
As to GHVRSL[pS]ERLMQM (not fully specified (C-terminus)) [13-mer Amot-p130 peptide (for crystallography)], the binding result in experiment [1] is given as “binds”.
As to B1, the binding result with 14-3-3ζ, in the experiment with 14-3-3β, in the experiment with 14-3-3τ and with 14-3-3ε was “binds” each time.
As for GHVRSL[pS]ERLMQMSLATSGV (not fully specified (C-terminus)) [20-mer Amot-p130 peptide (for crystallography)], the binding result in [2] is “binds”.
Consider B2, for which the “fold stabilisation with 1 mM fragment 09 or 22 against the DMSO control” value in experiment [3] and in experiment [4] was 2 fold in each case.
